Measured values taken from patent US20210087244A1 (UNIVERSITY OF BRITISH COLUMBIA, published 2021).

How the values were obtained:
Assay in all cases: SPR direct binding (MASS-1), hybridoma supernatant over immobilized antigen
[1] = target: T1, cyclo(CGHHQKG)-conjugated-BSA (SEQ ID NO: 2) (bovine, UniProt P02769 25-607, head-to-tail cyclized (amide bond between N- and C-terminus); conjugated to SMCC-activated BSA)
T1 construct: also called Cyclic-Peptide; cyclic peptide-BSA
Experimental: (§1) All SPR measurements were performed using a Molecular Affinity Screening System (MASS-1) (Sierra Sensors GmbH, Hamburg, Germany), an analytical biosensor that employs high intensity laser light and high speed optical scanning to monitor binding interactions in real time. The primary screening of tissue culture supernatants was performed using an SPR direct binding assay, whereby BSA-conjugated peptides, A-beta42 Monomer and A-beta42 Oligomer are covalently immobilized on individual flow cells of a High Amine Capacity (HAC) sensorchip (Sierra Sensors GmbH, Hamburg, Germany) and antibodies flowed over the surface. Protein G purified mAbs were analyzed in a secondary screen using an SPR indirect (capture) binding assay, whereby the antibodies were captured on a protein A-derivatized sensorchip (XanTec Bioanalytics GmbH, Duesseldorf, Germany) and A-beta40 Monomer, A-beta42 Oligomer, soluble brain extracts and cerebrospinal fluid flowed over the surface. The specificity of the antibodies was verified in an SPR direct binding assay by covalently immobilizing A-beta42 Monomer and A-beta42 Oligomer on individual flow cells of a HAC sensorchip and flowing purified mAbs.
(§2) Clones were retested for their ability to bind cyclic peptide, linear peptide, A-beta 1-42 monomer and A-beta 1-42 oligomers prepared as described above. Binding assays were performed using SPR as described above (Direct binding assays).

[2] = target: T2, linear CGHHQKG-conjugated-BSA (SEQ ID NO: 2) (bovine, UniProt P02769 25-607, conjugated to BSA)
T2 construct: also called Linear-Peptide; linear peptide-BSA
Experimental: as §1, §2

A-beta42 Oligomer = target: T3, A-beta42 Oligomer (human)
T3 construct: also called A β 42 Oligomer; A-beta 1-42 oligomers
Experimental: as §1, §2

T3 sequence (peptide, as listed by the source): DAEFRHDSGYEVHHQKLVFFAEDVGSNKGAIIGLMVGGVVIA
T1 sequence (P02769 25-607 limits assumed): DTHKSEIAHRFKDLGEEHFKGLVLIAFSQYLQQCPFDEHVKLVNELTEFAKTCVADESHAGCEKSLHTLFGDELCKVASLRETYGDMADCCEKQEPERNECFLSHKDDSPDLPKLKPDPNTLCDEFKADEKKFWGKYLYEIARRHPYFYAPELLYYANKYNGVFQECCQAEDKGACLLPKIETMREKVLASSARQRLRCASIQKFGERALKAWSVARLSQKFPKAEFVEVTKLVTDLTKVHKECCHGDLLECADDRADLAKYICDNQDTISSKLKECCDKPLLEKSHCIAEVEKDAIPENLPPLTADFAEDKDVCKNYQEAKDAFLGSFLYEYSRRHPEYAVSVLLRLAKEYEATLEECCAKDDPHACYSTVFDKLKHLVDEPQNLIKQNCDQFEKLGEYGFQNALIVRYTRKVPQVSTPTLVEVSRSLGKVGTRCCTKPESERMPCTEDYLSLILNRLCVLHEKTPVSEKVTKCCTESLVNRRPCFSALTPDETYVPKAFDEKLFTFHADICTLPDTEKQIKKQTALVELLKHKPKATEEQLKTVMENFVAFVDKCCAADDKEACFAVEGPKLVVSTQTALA
T2 sequence (P02769 25-607 limits assumed): as above

response units (RU) [1]: 698 RU
response units (RU) [2]: 1150 RU
response units (RU) (A-beta42 Oligomer): 66.8 RU
B1: 301-12G11 (17) (antibody, V domains shown)
VH: QVQLQQPGAELVKPGASVKMSCKASGYSFTSYWINWVKQRPGQGLEWIGDVHPGRGVSTYNAKFKSKATLTLDTSSSTAYMQLSSLTSEDSAVYYCSRSHGNTYWFFDVWGAGTTVTVSS
VL: DVLMTQTPLSLPVSLGDQASISCRSSQSIVHSNGNTYLEWYLQKPGQSPKLLIYKVSNRFSGVPDRFSGSGSGTDFTLKISRVEAEDLGVYYCFQGSHVPFTFGSGTKLEIKR
notes: they begin with a leader (MGWSC.../MKLPV...) and end with a few constant-region residues
